Measured values reported in patent publication US8440628B2, “Medical compositions containing ghrelin” (Daiichi Sankyo Company, Limited, priority 2002, dated 2013).

Key:
Assay type in all cases: physicochemical
[1] = Stability of human ghrelin in 0.1M HCl and Mcllvain buffer solutions of various pH at 25°C (Example 2, HPLC peak area ratio)
Description: Human ghrelin was dissolved in the following aqueous solutions in the concentration of about 0.15 μmol/mL (0.5 mg/mL).
0.1M HCl aqueous solution (pH: 1.1)
The pH was adjusted with 0.1M citric aqueous acid and 0.2M dibasic sodium phosphate aqueous solution.
Each solution were stored at 25±2° C. for 8, 24, 48 and 72 hours respectively, and the obtained solutions were detected by HPLC analysis in comparison to the solutions before storage. […] No significant changes of pH in solution before storage and after storage were observed.

[2] = Stability of human ghrelin in pH-adjusted purified water at 25°C (Example 7); details: for Peak area ratio to total peak area: 25±2°C
Description: Human ghrelin was dissolved in the purified water with about 0.03 μmol/mL (0.1 mg/mL). […] This solution was divided into quarter, and one portion was kept alone and the pH values of the remaining three portions were adjusted to pH 1.8 (with 17 mM of hydrochloric acid), pH 3.9 (with 0.20 mM of hydrochloric acid) and pH 7.8 (with 0.24 mM of sodium hydroxide) respectively, by adding along with hydrochloric acid or sodium hydroxide aqueous solution.

[3] = Stability of human ghrelin in Britton-Robinson buffer solutions of various pH at 40°C (Example 3); details: pH range of 3 to 6, stored at 40° C. for 1 day (FIG. 3)
Description: Human ghrelin, which is one of the ghrelins, was dissolved in the Britton-Robinson buffer solutions which is adjusted by combining 0.04M phosphoric acid-acetic acid-boric acid aqueous solution and 0.2M sodium hydrate aqueous solution in appropriate ratio, having pH of 2.1, 3.1, 4.0, 5.0, 6.0, 7.0 and 7.9 to obtain an aqueous solution containing human ghrelin in the concentration of about 0.15 μmol/mL (0.5 mg/mL). The obtained solution was filled in brownish glass ampoules and the ampoules were sealed with fire. For the calculation of kinetic constant, the certain degrees of degradation products have to be occurred in the aqueous solution of the ghrelins, and therefore, the ampoules were stored at 40±1° C., which was severe conditions for storage. The concentration (residual ratio) of human ghrelin was conducted by HPLC with time. At the same time, the pH of the solution was measured and it was confirmed that there was no significant changes of pH in solution.
The kinetic constants in each pH solution were calculated from the sequential change of the residual ratio, and the results were shown in FIG. 2.

Substance: desacylated human ghrelin (GSSFLSPEHQRVQQRKESKKPPAKLQPR; Ghrelin-28 desacyl; UniProt Q9UBU3 24-51, looked up) [Desacyl compound, degradation product obtained from the hydrolytic cleavage of octanoyl group of human ghrelin]
- Production of the degradation product in human ghrelin solution ([1]; Mcllvain buffer, pH range of 3.0 to 5.0, 25±2°C, up to 72 hours): inhibited
- Peak area ratio to total peak area ([1]; human ghrelin 0.5 mg/mL in 0.1M HCl aqueous solution, pH 1, 25±2°C, 8 hr. after): 4.88%
- Peak area ratio to total peak area ([1]; human ghrelin 0.5 mg/mL in 0.1M HCl aqueous solution, pH 1, 25±2°C, 8 hr. after, listed as desacyl compound): more than 3%
- Peak area ratio to total peak area ([1]; human ghrelin 0.5 mg/mL in 0.1M HCl aqueous solution, pH 1, 25±2°C, 24 hr. after): 13.31%
- Peak area ratio to total peak area ([1]; human ghrelin 0.5 mg/mL in 0.1M HCl aqueous solution, pH 1, 25±2°C, 48 hr. after): 24.63%
- Peak area ratio to total peak area ([1]; human ghrelin 0.5 mg/mL in 0.1M HCl aqueous solution, pH 1, 25±2°C, 72 hr. after): 34.17%
- Peak area ratio to total peak area ([1]; human ghrelin 0.5 mg/mL in 0.1M HCl aqueous solution, pH 1, 25±2°C, before storage): 0.27%
- Peak area ratio to total peak area ([1]; human ghrelin 0.5 mg/mL in Mcllvain buffer, pH 2, 25±2°C, 8 hr. after): 0.34%
- Peak area ratio to total peak area ([1]; human ghrelin 0.5 mg/mL in Mcllvain buffer, pH 2, 25±2°C, 24 hr. after): 0.89%
- Peak area ratio to total peak area ([1]; human ghrelin 0.5 mg/mL in Mcllvain buffer, pH 2, 25±2°C, 48 hr. after): 1.76%
- Peak area ratio to total peak area ([1]; human ghrelin 0.5 mg/mL in Mcllvain buffer, pH 2, 25±2°C, 48 hr. after, listed as desacyl compound): more than 1%
- Peak area ratio to total peak area ([1]; human ghrelin 0.5 mg/mL in Mcllvain buffer, pH 2, 25±2°C, 72 hr. after): 2.59%
- Peak area ratio to total peak area ([1]; human ghrelin 0.5 mg/mL in Mcllvain buffer, pH 2, 25±2°C, before storage): 0.10%
- Peak area ratio to total peak area ([1]; human ghrelin 0.5 mg/mL in Mcllvain buffer, pH 3, 25±2°C, 8 hr. after): 0.20%
- Peak area ratio to total peak area ([1]; human ghrelin 0.5 mg/mL in Mcllvain buffer, pH 3, 25±2°C, 24 hr. after): 0.38%
- Peak area ratio to total peak area ([1]; human ghrelin 0.5 mg/mL in Mcllvain buffer, pH 3, 25±2°C, 48 hr. after): 0.67%
- Peak area ratio to total peak area ([1]; human ghrelin 0.5 mg/mL in Mcllvain buffer, pH 3, 25±2°C, 72 hr. after): 0.98%
- Peak area ratio to total peak area ([1]; human ghrelin 0.5 mg/mL in Mcllvain buffer, pH 3, 25±2°C, before storage): 0.10%
- Peak area ratio to total peak area ([1]; human ghrelin 0.5 mg/mL in Mcllvain buffer, pH 4, 25±2°C, 8 hr. after): 0.12%
- Peak area ratio to total peak area ([1]; human ghrelin 0.5 mg/mL in Mcllvain buffer, pH 4, 25±2°C, 24 hr. after): 0.21%
- Peak area ratio to total peak area ([1]; human ghrelin 0.5 mg/mL in Mcllvain buffer, pH 4, 25±2°C, 48 hr. after): 0.37%
- Peak area ratio to total peak area ([1]; human ghrelin 0.5 mg/mL in Mcllvain buffer, pH 4, 25±2°C, 72 hr. after): 0.51%
- Peak area ratio to total peak area ([1]; human ghrelin 0.5 mg/mL in Mcllvain buffer, pH 4, 25±2°C, before storage): 0.09%
- Peak area ratio to total peak area ([1]; human ghrelin 0.5 mg/mL in Mcllvain buffer, pH 5, 25±2°C, 8 hr. after): 0.14%
- Peak area ratio to total peak area ([1]; human ghrelin 0.5 mg/mL in Mcllvain buffer, pH 5, 25±2°C, 24 hr. after): 0.24%
- Peak area ratio to total peak area ([1]; human ghrelin 0.5 mg/mL in Mcllvain buffer, pH 5, 25±2°C, 48 hr. after): 0.45%
- Peak area ratio to total peak area ([1]; human ghrelin 0.5 mg/mL in Mcllvain buffer, pH 5, 25±2°C, 72 hr. after): 0.61%
- Peak area ratio to total peak area ([1]; human ghrelin 0.5 mg/mL in Mcllvain buffer, pH 5, 25±2°C, before storage): 0.10%
- Peak area ratio to total peak area ([1]; human ghrelin 0.5 mg/mL in Mcllvain buffer, pH 6, 25±2°C, 8 hr. after): 0.28%
- Peak area ratio to total peak area ([1]; human ghrelin 0.5 mg/mL in Mcllvain buffer, pH 6, 25±2°C, 24 hr. after): 0.70%
- Peak area ratio to total peak area ([1]; human ghrelin 0.5 mg/mL in Mcllvain buffer, pH 6, 25±2°C, 48 hr. after): 1.33%
- Peak area ratio to total peak area ([1]; human ghrelin 0.5 mg/mL in Mcllvain buffer, pH 6, 25±2°C, 48 hr. after, listed as desacyl compound): more than 1%
- Peak area ratio to total peak area ([1]; human ghrelin 0.5 mg/mL in Mcllvain buffer, pH 6, 25±2°C, 72 hr. after): 1.97%
- Peak area ratio to total peak area ([1]; human ghrelin 0.5 mg/mL in Mcllvain buffer, pH 6, 25±2°C, before storage): 0.10%
- Peak area ratio to total peak area ([1]; human ghrelin 0.5 mg/mL in Mcllvain buffer, pH 7, 25±2°C, 8 hr. after): 0.92%
- Peak area ratio to total peak area ([1]; human ghrelin 0.5 mg/mL in Mcllvain buffer, pH 7, 25±2°C, 24 hr. after): 2.70%
- Peak area ratio to total peak area ([1]; human ghrelin 0.5 mg/mL in Mcllvain buffer, pH 7, 25±2°C, 24 hr. after, listed as desacyl compound): more than 1%
- Peak area ratio to total peak area ([1]; human ghrelin 0.5 mg/mL in Mcllvain buffer, pH 7, 25±2°C, 48 hr. after): 5.22%
- Peak area ratio to total peak area ([1]; human ghrelin 0.5 mg/mL in Mcllvain buffer, pH 7, 25±2°C, 72 hr. after): 7.67%
- Peak area ratio to total peak area ([1]; human ghrelin 0.5 mg/mL in Mcllvain buffer, pH 7, 25±2°C, before storage): 0.16%
- Peak area ratio to total peak area ([1]; human ghrelin 0.5 mg/mL in Mcllvain buffer, pH 8, 25±2°C, 8 hr. after): 3.92%
- Peak area ratio to total peak area ([1]; human ghrelin 0.5 mg/mL in Mcllvain buffer, pH 8, 25±2°C, 8 hr. after, listed as desacyl compound): more than 3%
- Peak area ratio to total peak area ([1]; human ghrelin 0.5 mg/mL in Mcllvain buffer, pH 8, 25±2°C, 24 hr. after): 10.57%
- Peak area ratio to total peak area ([1]; human ghrelin 0.5 mg/mL in Mcllvain buffer, pH 8, 25±2°C, 48 hr. after): 19.54%
- Peak area ratio to total peak area ([1]; human ghrelin 0.5 mg/mL in Mcllvain buffer, pH 8, 25±2°C, 72 hr. after): 27.26%
- Peak area ratio to total peak area ([1]; human ghrelin 0.5 mg/mL in Mcllvain buffer, pH 8, 25±2°C, before storage): 0.47%
- Production of the degradation product in human ghrelin solution ([2]; aqueous solution of pH 3.9 and 4.7, 25±2°C, up to 3 days): inhibited
- Peak area ratio to total peak area ([2]; human ghrelin 0.1 mg/mL in purified water adjusted to pH 1.8 with hydrochloric acid, 1 day after): 1.46%
- Peak area ratio to total peak area ([2]; human ghrelin 0.1 mg/mL in purified water adjusted to pH 1.8 with hydrochloric acid, before storage): 0.12%
- Peak area ratio to total peak area ([2]; human ghrelin 0.1 mg/mL in purified water adjusted to pH 3.9 with hydrochloric acid, 1 day after): 0.09%
- Peak area ratio to total peak area ([2]; human ghrelin 0.1 mg/mL in purified water adjusted to pH 3.9 with hydrochloric acid, 3 days after): 0.14%
- Peak area ratio to total peak area ([2]; human ghrelin 0.1 mg/mL in purified water adjusted to pH 3.9 with hydrochloric acid, before storage): 0.07%
- Peak area ratio to total peak area ([2]; human ghrelin 0.1 mg/mL in purified water adjusted to pH 7.8 with sodium hydroxide, 1 day after): 3.65%
- Peak area ratio to total peak area ([2]; human ghrelin 0.1 mg/mL in purified water adjusted to pH 7.8 with sodium hydroxide, 3 days after): 9.84%
- Peak area ratio to total peak area ([2]; human ghrelin 0.1 mg/mL in purified water adjusted to pH 7.8 with sodium hydroxide, before storage): 0.33%
- Peak area ratio to total peak area ([2]; human ghrelin 0.1 mg/mL in purified water, pH 4.7 (not adjusted), 1 day after): 0.15%
- Peak area ratio to total peak area ([2]; human ghrelin 0.1 mg/mL in purified water, pH 4.7 (not adjusted), 3 days after): 0.28%
- Peak area ratio to total peak area ([2]; human ghrelin 0.1 mg/mL in purified water, pH 4.7 (not adjusted), before storage): 0.06%
- Production of the degradation product in human ghrelin solution [3]: inhibited
